Assay results as given in the DeepSol protein solubility set.

test: soluble on expression in E. coli; label from the status in PepcDB or PDB records

Sequence | soluble on expression in E. coli
MSLIRKFSSKDLDAVEEIEREAFKTPYPTSLILGFWSMYPNCFYVAEIDGRVVGYILGSMDWGNGHIISLAVKKECRGLGIGTALLKTLENYYFNIANCNYIVLEVRVSNVLARRFYYRMGYRDRKLLPKYYEDGEDAILMIKKKPNAKGPLIITLWEGHHHHHH | soluble
MSLITVANRIFVNPERAAAFEERFRRRPRRVDRQPGFIADHVLRPTQAGDPYVVLSFWDSRAAFEAWRTSPGFKDGHKEGHHHHHH | not soluble
MSLKAFLPLLFSFFFIISCQQHKEATISPIDEEDELQEEADSLPRATAIFWLDKYHMKELKKDDVLTFRTAKAKVVIRNDGTIDLLSFVEQQPGNAQRYIRYRLKDFKVKKILMDNGYINPGEQYVQLRYIPALARRVKEGHHHHHH | soluble
MSLKAINFINWKYIGLTGCLVASLLTACGDDETGPEVVTPLEPKLEIVNEASTFSFSSAGNSAQVLTFNANQDWHIVLDDSEGVDNSWVVLFEREGTAGEGNKVWVAAAENVEPDARRANFSLVSGGFKYDFVIYQAQKDAVVITDPKAYENLDAGEHIISVEFGINTGEYKTSFLYSGDTGWIMPTDERPAGEPETRAMENHTLYFKVLPNQKFDIRRGTIEISSKDNDNVKATMNIFQTGLPKPVITVDNKEMFTNLASKEDSILLKYKATNTNGPRDLTIDIDKNDQDWISFKPAIDAKGDSTFLVSVKENTGGERTATIALCAAADKKVREEFIVTQAQASDVELVITNKNDFRTSLDKLGSAATVKYSVQSTLTDPKNEILVDIVYPEESGYTAENGWLHMANNSMPERVIFTYDVNKVLRERQATVYIYRKGYENKKDYMVIRQAAATQIEIPAPGGLTNVLQSLIDDEIYKDWESITSLELKGRLNDTDLNLLKNMMTAGKGYNLKTLDMTEVENETLKNGVFNGCNLLENISFPTGLQYVPREACRNCTKLRTVVVNEGPTYIGRHAFGNSVVNEAWFPSTMTYVYGYIFDNVTALKTLHLKSLPFQCKEVARSDADEGATQPTTWCTVFKTWPSTVYVPMEYLEYYKNPDPKHVVSMHFQDLLNTLTSESEEWTKGPKVQQPYLKSNSALKSNFTWGSSATTIMGESEGHHHHHH | soluble
MSLKALHFGAGNIGRGFIGKLLADAGIQLTFADVNQVVLDALNARHSYQVHVVGETEQVDTVSGVNAVSSIGDDVVDLIAQVDLVTTAVGPVVLERIAPAIAKGQVKRKEQGNESPLNIIACENMVRGTTQLKGHVMNALPEDAKAWVEEHVGFVDSAVDRIVPPSASATNDPLEVTVETFSEWIVDKTQFKGALPNIPGMELTDNLMAFVERKLFTLNTGHAITAYLGKLAGHQTIRDAILDEKIRAVVKGAMEESGAVLIKRYGFDADKHAAYIQKILGRFENPYLKDDVERVGRQPLRKLSAGDRLIKPLLGTLEYGLPHKNLIEGIAAAMHFRSEDDPQAQELAALIADKGPQAALAQISGLDANSEVVSEAVTAYKAMQEGGSHHHHHH | soluble
MSLKAQRYASVLTLDNLTGRLVVVGDIHGCLAQLQGMLRAVSFKQGSDTLVAVGDLVNKGPDSFGVVRLLKRLGAHSVLGNHDVKLLKLVKKIREKGPLNERDTKSSLAPFALTVPVDVEVYLSQLPHIIRIPAHNVIMTHGGLHPQRPLDCQYIDEVTTLRNLIEKEQKAGGVTLVATPETKDGGVPWASLWRGPETVVFGHDSRRGLQEQYRPLAIGLDSGCVYGGRLSAAVFPGGHIVSVSGWRREAKEGHHHHHH | soluble
MSLKATSSDDKVTFHALNGDVKVPKNPKRIAVQNYPDEVASLGANVVGTDSWAFPNTFLSKDQKKNMVDLGAPKFNMEKLIAQNPDLIITVDKDQVADYQKVAPTVLVNYKDLSGMNKSLDYFAKLLNREDEKASFLKNFKKEADKQKEKLAKVDVKPAKNTISLLELQGDKVYAFGDNFARGGQALTTGLGFKESSKMAELSKGVGYAEVNTESLGEFDADYIFIDFADKDKEQYAALKNNPAWQNLKAVKEGHVITMDYDKVYFFGGPTAAKEELSLYTDAIIKATKEGHHHHHH | soluble
MSLKAVQQHAFGGPEVLSYEDAPMPVLQAGEVLVQVYAVGVNPPDSYLRDGYQQLPPEWRPEVRFPLILGTDLSGVVVARADDVREVAVGDEVYAMARFPEGAAGGSRAYAEYVSVPVSDLARKPLTLSHQQAAAVPMSLLTAWQFMIDPGHEVANPLQPGPHRPVPLAGKRVLVNGAAGGVGHFAVQLAKWQGAEVIAVAAGCHEAFLRQLGADSVIDYTTTAVEETVRDLDLVIDAPGGPASGRFLRTLRPGGALYPIFPLGFAGAEEARQRGVTVSTTQVRSSGAQLARLADLLDAGVIRVAIDSVFPLAQAQMAHERAAQGHLEGKIVLSVMDSEGHHHHHH | soluble
MSLKAWQLENFGLDNLKQVELEKPEIAEDQILIKVNSVSLNYRDTAIVEGIYTPELLKFPFIPVSDASGIVVEIGSKVTKFKKGDRVTSHMFTKWLDGKPKSDEQSHALGATVDGGLSEYMVLNENAAVFSPETLTDNQSSTLPVAAFVNWFSLVEYGNIKAGDKVLVQGTGGVSIFAIQIASALGAEVIATSSSDEKLEKAKELGASKVINYKTHPDWEKEVQKLTNGKGVEHIVEVVGGSSIAKSIDALAFQGHIYVIGFLENMEANVNLFALLAKQARIQGVNLGHHRAFEDFNKALDQINIDPVIDTVYSFDQAKEAYEHQMKGAFGKIVIDFNEGHHHHHH | not soluble
MSLKEDFDLKTHIESSGHGVDTCLHVVLSSKVCRGYLVKMGGKIKSWKKRWFVFDRLKRTLSYYVDKHETKLKGVIYFQAIEEVYYDHLRSAAKKRFFRFTMVTESPNPALTFCVKTHDRLYYMVAPSAEAMRIWMDVIVTGAEGYTQFMNEGHHHHHH | not soluble
MSLKFAFIAKHRSIWPVAWLCEALGVSRSGFHAWFNRSPSEHARHDEVLLERIKQSFQSSDRTYGARRVWHDVLEEGLSCGLHRIERLMRLNALRARPRRRGFPKDAGDRPVVMPNVLDRQFVADRPNQKWVADFTYIWTAEGWLYVAAVIDLFSRRVVGWSMNANMTAQLVTDALIMAIWRRGKPDALLHHSDQGSQYTSEQFQRLMGDHGITCSMSRSGNVWDNAAMESFFSSLKTERTARKVYRTRNDARADVFDYIERFYNPKRRHSTLGYLSPDDFETKVGLAEGHHHHHH | not soluble
MSLKFTAIDFETANEKRNSPCSIGIVVVKDGHVVEKSHHLIRPKEMRFMPINIGIHGIRPAMVEKEPEFDKVWEKIKHYFDDTLVIAHNASFDISVLRKSAELYNIELPEFNYICTMKLARNFYKGIENAKLNTVNNFLGYEFRHHDALYDALACSNIMLSISKELKCKDITEISKLLGEGHHHHHH | not soluble
MSLKFVGLVGSNYDQSYNRKLLEFIRRYFKLKFELEVLEIDEVPMFNQDEKWDESFQLRYLYNKITRADGVIIATPEHNHTISASLKSVLEWLSYEVHPFENKPVMIVGASYYDQGTSRAQVHLRKILDAPGVNAYTLPGNEFLLGKAKEAFDNNGNITNEGTVKFLETCLDNFVKYVGVVSKLKKPKPIESEDLDCGKPIATTITEVDPDDPEWVEKVAAFTGAVSGDTYVKLDHGILTVNQIDMFLKAMPFELTYADDNNQFLYYNNAHQDPDTMFAKRVPPQSGSRMSTVHGSLPPARMKNVEWVIGTLRNGNQEYVRTIVPGSPAGVINTHNYQAMYYPDGSYAGINEIVFNFQPWLDWYLKETGQRLVGGSGPFAPAAGGHGDADATSGASDSGDAGGHGGDADATAGASYEGHHHHHH | soluble
MSLKGKIIEKVISKVKCKSDENYKIGLWVRDSTAGIGTLTFYSDKTKVFGALGHPITDVDTGDIINISRGSLIDSSIVSVNKGIRGNPGELRGIFINENKPIGIVKNNTICGLFGKGYEKFEGLQYNKPMEVAMRNEVKLGPAKILTTIDGSQPKMYAINIEKLFDQSSPNPKSMMIKVTDAELLDKTGGIVQGMSGSPIIQNNKVVGAVTHVLINKPDTGYGVYIEWMLKSAGILEGHHHHHH | soluble
MSLKHVVVIGAVALGPKAACRFKRLDPEAHVTMIDQASRISYGGCGIPYYVSGEVSNIESLQATPYNVVRDPEFFRINKDVEALVETRAHAIDRAAHTVEIENLRTGERRTLKYDKLVLALGSKANRPPVEGMDLAGVTPVTNLDEAEFVQHAISAGEVSKAVIVGGGFIGLEMAVSLADMWGIDTTVVELADQIMPGFTSKSLSQMLRHDLEKNDVVVHTGEKVVRLEGENGKVARVITDKRTLDADLVILAAGVSPNTQLARDAGLELDPRGAIIVDTRMRTSDPDIFAGGDCVTIPNLVTGKPGFFPLGSMANRQGRVIGTNLADGDATFPGAVGSWAVKLFEGSASGAGLTVEGALREGYDAVNVHVEQFDRAHFYPEKTIMTLQLVVDRPTRRVLGIQGFSTLGDALTARINAVATMLASKPTVEDISNAEVVYSPPFASAMDIVNVAGNVADNVLAGRCRLVGTEEFVQLWEGRKDADICFVDTRLAANAVPLVEKYGDEWINIPEEELAARIDEIPRDKTVMLVCNTGLRSFESQLILDRLGLTNTKSVAGGMVAIHKIGGDEGHHHHHH | soluble
MSLKIAEMDSNSAVMAAQNEVIRGEIKDRDGNVLAKSTKSGDLTQKREYPYGEIYSHPIGYASGIYGNAGLEGAYSKELTTYENVSLKAFLKSFNLKKDFKERNESDKKVGNSIVTTLDTDLQKAAYAALGANRGAVVALDPKTGAVLASVSKPGFNPNNMKETYEIANNPNGNPKDAILVDRALNGQYPPGSTFKVVTLTSALENLPGVTERTFNDTGSINVGTKDLPNENGNAYGNISLRKALSVSSNVIFGGILGEELGNKKLRETAEKYGFNKDLYLGNLKAYSGSFPDRKTVDKGLIAYDAIGQGEVLSSPIEMAMVAATVANNGVRMEPYIVSKVVDKDGDTVKEFSSTKKDTVMSKEQAQIINEYMQGVAKDRINDNWGYFKGMNVAAKTGTAQVPDGNSHAWLIAFAPADDPKIAVATIVENGGSGSKVAAPVTARVMQAYFNEGHHHHHH | soluble
MSLKIAIVGSGNGAVTAAVDMVDKGHDVRLYCRNESISKFDVALEKGGFDFNNEGEEKFIEFTDISDDMEYVLDGADIVQVIIPSSFIEYYAKVMSKFVTNDHLIFFNIAASMGSIRFMNVLEDRHIDVHPHFAEANTLTYGTRVDFNNAKVDLSLNVRRVFFSTFDRSELNESYEKVSKIYDYLVKEESLLKTNLENGNPEVHPGPTLLNVGRIDYSEEFSLYKEGITKHTVRLLHAIEIERLNLGRKLGFELSTAKESRIQRGYLERKDEDEPLNRLFNTSPVFSQIPGPNHVENRYLTEDIAYGLVLWSSLGRVIDVPTPNIDAVIMIASTILERDFFEEGLTIEELGLDKLGLEEGHHHHHH | soluble
MSLKIKSIKAITLSMPFSHGGKKVIFHGKEWKSLEFNLVKVETDKGIIGWGEAFGYTSWKAVKIAIEDMVAPLLVGKDMTNIPELILILQKSLHLFGRYGITMFAISGVEIALWDALGKEKNKPIHELLGKKNKDLFKAYSSLFRYGDPKIVEQKCKQSLDDGYQAIKLHEIENNCIEAGRKGTGNLPLMLDTNCPWTYEETLAKKNFLQEMRLTWLEEPIYPPEDYQTLAKLKKELDIPIACGENACTEFEFKSIIDQNAVTYVQPSVIKVGGIYEMFKIIQHAEKNNILVMPHTAYFGPGFLATLQLASLMKNETYIERFYLDIDQEFYPNFKRALNGKYKLPSGPGLGIDLDYKKLSKYEIEGHHHHHH | soluble
